From article PMC2831303 come the findings set out here.

Data set [1] concerns the target NorRΔGAF (GAF domain deleted form of E. coli NorR) (E. coli). The data set can be described thus: SEC.
Data set [2] has the same target.
Data set [3] has the same target. The data set can be described thus: negative-stain electron microscopy.
In data set [4] the target is T1, NorRΔGAF (Escherichia coli, UniProt P37013 178-504).
T1 sequence: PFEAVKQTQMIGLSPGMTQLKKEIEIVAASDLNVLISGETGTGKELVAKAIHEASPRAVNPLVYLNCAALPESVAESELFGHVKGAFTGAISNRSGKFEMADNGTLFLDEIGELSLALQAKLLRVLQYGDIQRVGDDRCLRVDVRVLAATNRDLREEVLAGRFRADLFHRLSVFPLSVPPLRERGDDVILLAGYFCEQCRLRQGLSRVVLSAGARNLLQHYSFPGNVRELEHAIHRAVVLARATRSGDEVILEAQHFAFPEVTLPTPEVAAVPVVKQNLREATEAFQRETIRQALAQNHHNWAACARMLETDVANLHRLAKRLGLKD
Description: EMSA. (In EMSA bound probe runs differently from free probe, usually more slowly.)

Data set [5] deals with T1, NorRΔGAF. Description: gel filtration. A general note: SEC sorts molecules by how far they enter the pores of the column.

One may read the stoichiometry N as a count of units in the complex or per binding partner. Take “NorRΔGAF (GAF domain deleted form of E. coli NorR) (domain or fragment)”: the stoichiometry N in data set [1] worked out at 2; in data set [3] it was 6. In data set [2], this molecule yielded an ATPase activity against NorRΔGAF concentration with 21 bp NorR1 DNA (1:1): Keff of 8.4 µM.

B1: NorR123 66 bp (dsDNA)
DNA 1: TCACTGTCAATTTGACTATAGATATTGTCATATCGACCATTTGATTGATAGTCATTTTGACTACTC
DNA 2: GAGTAGTCAAAATGACTATCAATCAAATGGTCGATATGACAATATCTATAGTCAAATTGACAGTGA
One may read the Kd as the free concentration of one partner at which half of the binding sites on the other are occupied at equilibrium, for simple one-to-one binding. A high value points to weaker binding. Consider B1, for which, in the data set with NorRΔGAF [4], the Kd was 174 nM.

B2: NorR1 21 bp (dsDNA)
DNA 1: GATAGTCATTTTGACTACTCA
DNA 2: TGAGTAGTCAAAATGACTATC
With B2, in the data set with NorRΔGAF [5], the binding result is listed as “binds”.
